The source of these data is patent US20230295310A1 (ABCELLERA BIOLOGICS, published 2023).

The target of one assay is T1, human CD3e/d (human, UniProt P07766 23-126; P04234 22-105).
T1 construct: Bought soluble protein; also called hCD3e/d; human CD3/ed (Sino CT038-H2508H)
In words: SPR (Carterra LSA), mAb on chip. An outline of the steps: (§1)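 Purified mAbs amine-coupled (EDC/S-NHS) at 10 μg/mL in 10 mM NaOAc pH 4.25 onto an HC-30M chip, with benchmark and negative-control mAbs; analyte flowed over the array. Double-referenced sensorgrams fitted globally to a 1:1 Langmuir model for ka, kd and KD.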

The next assay addresses T2, human CD3e/g (human, UniProt P07766 23-126; P09693 23-116).
T2 construct: Bought soluble protein; also called hCD3e/g; human CD3e/g (Acro CDD-C52W4)
In words: SPR (Carterra LSA), mAb on chip. An outline of the steps: as §1

T2 sequence (P07766 23-126, chain 1 of 2): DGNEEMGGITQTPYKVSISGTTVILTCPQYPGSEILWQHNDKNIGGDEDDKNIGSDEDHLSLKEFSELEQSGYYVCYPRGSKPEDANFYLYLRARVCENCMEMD
T2 sequence (P09693 23-116, chain 2 of 2): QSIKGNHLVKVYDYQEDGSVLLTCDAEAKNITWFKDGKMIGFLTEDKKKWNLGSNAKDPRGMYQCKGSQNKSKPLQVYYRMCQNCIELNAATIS
T1 sequence (P07766 23-126, chain 1 of 2): as the sequence (P07766 23-126, chain 1 of 2) above
T1 sequence (P04234 22-105, chain 2 of 2): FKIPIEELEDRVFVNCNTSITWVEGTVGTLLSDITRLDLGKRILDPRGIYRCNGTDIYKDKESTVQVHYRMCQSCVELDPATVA

B1: mAb 46 (antibody, V domains shown)
VH: EGQLVESGGGLVQPGGSLRLSCVASGFTLSSYTLNWVRQAPGKGLEWVSYISSTSRTIYYSDSVKGRFTISRDNAKNSLYLQMNSLRDEDTALYYCAREDYYDSSGFDYWGQGTLVTVSS
VL: AIRMTQSPSSFSASTGDRVTITCRASQGISSYLAWYQQKPGKAPKLLIYTASTLQSGVPSRFSGSGSGTDFTLTIRSLQSEDFATYYCQQYYSYPRTFGQGTKVEIK
notes: VH and VL only
The term Kd denotes the free concentration of one partner at which half of the binding sites on the other are occupied at equilibrium, for simple one-to-one binding. A higher Kd goes with a looser complex. As for B1, the dissociation constant Kd is 240 nM with human CD3e/d and 98.4 nM with human CD3e/g.

B2: mAb 51 (antibody, V domains shown)
VH: EVQLVESGGGLVQPGGSLRLSCAASGFTLSSYTMNWVRQAPGKGLEWVSYISSSSRTIYYSDSVKGRFSISRDNAKNSLYLQMNSLRDEDTALYYCAREDYYDSSGFDNWGQGTLVTVSS
VL: AIRMTQSPSSFSASTGDRVTITCRASQGISSYLAWYQQKPGKAPKLLIYTASTLQSGVPSRFSGSGSGTDFTLTIRSLQSEDFATYYCQQYYSYPRTFGQGTKVEIK
notes: VH and VL only
Consider B2, for which the figures for the Kd with human CD3e/d and in the assay with human CD3e/g were 351 nM and 171 nM, respectively.

B3: mAb 320 (antibody, V domains shown)
VH: QVQLVESGGGVVQPGRSLRLSCAASGFTFRSYGMHWVRQAPGKGLEWVAIIWYDGSKKYYADSVKGRFTISRDNSKNILYLQMNSLRAEDTAVYYCARQEFNWNDGGYYYMDVWGKGTTVTVSS
VL: DIQLTQSPSFLSASVGDRVTITCRASQGISSYLDWCQQKPGKAPKLLIYAASTLQSGVPSRFSGSGSGTEFTLTISSLQPEDFATYYCQQLDNYPPTFGGGTKVEIK
notes: VH and VL only
As to B3, the Kd with human CD3e/g was 0.69 nM.

B4: mAb 130 (antibody, V domains shown)
VH: EVQLVESGGGLVKTGGSLRLSCVASGFSFKKAWMNWVRQAPGKGLEWVGRIKRNSDGGATDYAAPVKDRFTLSRDDSKNTLYLQMNSLKTEDTAVYYCTTLDSSSWYVGYYYMDVWGKGTTVTVSS
VL: DIHMTQSPSSVSASLGDRVTFTCRASQDINNWLAWYQQRPGKAPKLLIYTASSLQSGVPSRFSGSGSGTDFTLTISSLQPEDFATYYCQQAHSLPITFGQGTRLGIK
notes: VH and VL only
As for B4, the Kd in the assay with human CD3e/d was determined as 21.7 nM; with human CD3e/g, 6.07 nM.

B5: mAb 120 (antibody, V domains shown)
VH: EVQLVESGGGLVKTGGSLRLSCVASGFSFKKAWMNWVRQAPGKGLEWVGRIKRNTDGGTADYAAPVKGRFTLSRDDSKKTLFLQMNSLKTEDTAVYYCTTLDSSSYYVGYYYMDVWGKGTTVTVSS
VL: DIQMTQSPSSVSASVGDRVTITCRASQDINNWLAWYQQKPGKAPKLLIYTASSLQSGVPSRFSGSGSGTDFTLTIGSLQPEDFATYYCQQAHSLPITFGQGTRLEIK
notes: VH and VL only
As for B5, the results for the Kd in the assay with human CD3e/d and in the assay with human CD3e/g were 44.4 nM and 12.1 nM, respectively.

B6: mAb 125 (antibody, V domains shown)
VH: EVQLVESGGGLVKTGGSLRLSCVASGFSFKKAWMNWVRQAPGKGLEWVGRIKRNTDGGTADYAAPVKGRFTLSRDDSKKTLYLQMNSLKTEDTAVYYCTTLDSSSRYVGYYYMDVWGKGTTVTVSS
VL: DIQMTQSPSSVSASVGDRVIITCRASQDINNWLAWYQQKPGKVPKLLIYTASSLQSGVPSRFSGSGSGTDFTLTIGTLQPEDFATYYCQQAHSLPITFGQGTRLDIK
notes: VH and VL only
For the molecule B6, the Kd is 36 nM in the assay with human CD3e/d and 13.8 nM with human CD3e/g.

B7: mAb 114 (antibody, V domains shown)
VH: EVQLVESGGGLVKTGGSLRLSCVASGFSFKKAWMNWVRQAPGKGLEWVGRIKRNTDGGPADYAAPVKGRFTLSRDDSKKTLYLQMNSLKTEDTAVYYCTTLDSSSWYVGYYYMDVWGKGTTVTVSS
VL: DIQMTQSPSSVSASVGDRVIITCRASQDINNWLAWYLQRPGKAPKLLIYAASSLQSGVPSRFSGSGSGTDFTLTIGSLQPEDFATYYCQQAHSLPITFGQGTRLEIQ
notes: VH and VL only
Regarding B7, the values for the Kd with human CD3e/d and with human CD3e/g were 65.8 nM and 18.9 nM, respectively.

B8: mAb 155 (antibody, V domains shown)
VH: EVQLVESGGGLVKTGGSLRLSCVASGFSFKKAWMNWVRQAPGKGLEWVGRIKRNTDGGTADYAAPVKGRFTLSRDDSKKTLFLQMNSLKTEDTAVYYCTTLDSSSYYVGYYYMDVWGKGTTVTVSS
VL: DIQMTQSPSSVSASVGDRVIITCRASQDINNWLAWYQQKPGKAPKLLIYTASSLQSGVPSRFSGSGSGTDFTLTIGSLQPEDFATYYCQQAHSLPISFGQGTRLDIK
notes: VH and VL only
Take B8: the Kd with human CD3e/d was found to be 46.2 nM; with human CD3e/g it was 7.07 nM.

B9: mAb 131 (antibody, V domains shown)
VH: EVQLVESGGGLVKTGGSLRISCVASGFSFKKAWMNWVRQAPGKGLEWVGRIKRNTDGGTIDYAAPVKGRFSLSRDDSKNTLFLQMNSLKTEDTAVYFCTTLDSSSYYVGYYYMDVWGKGTTVTVSS
VL: DIHMTQSPSSVSASVGDRVTITCRASQDINNWLAWYQQKPGKAPKLLIYTASSLQSGVPSRFSGSGSGTDFTLTISSLQPEDFATYFCQQAHSLPITFGQGTRLGIK
notes: VH and VL only
Consider B9, for which the Kd with human CD3e/d amounted to 32.1 nM; with human CD3e/g, 7.45 nM.

B10: mAb 163 (antibody, V domains shown)
VH: EVQLVESGGGLVKTGGSLRLSCVASGFSFKKAWMNWVRQVPGKGLEWVGRIKRNTDGGTADYAAPVKGRFTLSRDDSKKTLFLQMNSLKTEDTAVYYCTTLDSSSYYVGYYYMDVWGKGTTVTVSS
VL: DIQMTQSPSSVSASVGDRVIITCRASQDINNWLAWYQQKPGKAPKLLIYTASSLQSGVPSRFSGSGSGTDFTLTIGSLQPEDFATYYCQQAHSLPITFGQGTRLEIK
notes: VH and VL only
As for B10, the Kd with human CD3e/d stood at 42 nM; with human CD3e/g it was 8.63 nM.

B11: mAb 116 (antibody, V domains shown)
VH: EVQLVESGGGLVKTGGSLRLSCVASGFSFKKAWMNWVRQAPGKGLEWVGRIKRNSDGGTTDYAAPVKGRFTLSRDDSKNTLYLQMNSLKTEDTAVYYCTTLDSSSWYVGYYYMDVWGKGTTVTVSS
VL: DIQMTQSPFSVSASVGDRVTITCRASQDINNWLAWYQQKPGKAPKILIYTASSLQSGVPSRFSGSGSGTDFTLTISSLQPEDFATYYCQQAHSLPITFGQGTRLEIK
notes: VH and VL only
With B11, the values for the Kd with human CD3e/d and with human CD3e/g were 104 nM and 24.1 nM, respectively.

B12: mAb 115 (antibody, V domains shown)
VH: EVQLVESGGGLVKTGGSHRLSCVASGFSFKKAWMNWVRQAPGKGLEWVGRIKRNSDGGTTDYAAPVKGRFILSRDDSKNTLYLQMNSLKTEDTAVYYCTTLDSSSWYVGYYYMDVWGKGTTVTVSS
VL: DIQMTQSPSSVSASVGDRVTITCRASQDINNWLAWYQQKPGKAPKILIYTASNLQSGVPSRFSGSGSGTDFTLTISSLQPEDFATYFCQQAHGLPITFGQGTRLEIK
notes: VH and VL only
Consider B12, for which the Kd with human CD3e/d was 63.8 nM; with human CD3e/g, 15.7 nM.

B13: mAb 133 (antibody, V domains shown)
VH: EVQLVESGGGLVKTGGSLRLSCVASGFSFKKAWMSWVRQAPGKGLEWVGRIKRNTDGGTADYAAPVKGRFTLSRDDSKKTLFLQMNSLKTEDSAVYYCVTLDSSSYYVGYYYMDVWGKGTTVTVSS
VL: DIQMTQSPSSVSASVGDRVSITCRASQDINNWLAWYQQKPGKAPKLLIYTASSLQSGVPSRFSGSGSGTDFTLTIGSLQPEDFATYYCQQAHSLPITFGQGTRLEIK
notes: VH and VL only
With B13, the figures for the Kd with human CD3e/d and in the assay with human CD3e/g were 27.2 nM and 6.64 nM, respectively.

B14: mAb 157 (antibody, V domains shown)
VH: EVQLVESGGGLVKTGGSLRLSCVASGFSFKKAWMNWVRQAPGKGLEWVGRIKRTADGGATDYAAPVKGRFTLSRDDSKNTLYLQMNSLKTEDTAVYYCTTLDSSSWYVGYYYMDVWGKGTTVTVSS
VL: DIHMTQAPSSVSASVGDRVTFTCRASQDINNWLAWYQQKPGKAPKLLIYTASSLQSGVPSRFSGSGSGTDFTLTISSLQPEDFATYYCQQAHSLPITFGQGTRLGIK
notes: VH and VL only
For B14, the figures for the Kd in the assay with human CD3e/d and with human CD3e/g were 53.1 nM and 12.2 nM, respectively.

B15: mAb 156 (antibody, V domains shown)
VH: EVQLVESGGGLVKTGGSLRLSCVASGFSFKKAWMNWVRQAPGKGLEWVGRIKRNTDGGTADYAAPVKGRFTLSRDDSKKTLFLQMNSLKTEDTAVYYCTTLDSSSYYVGYYYMDVWGKGTTVTVSS
VL: DIQMTQSPSSVSASVGDRVIITCRASQDINNWLAWYQQKAGKAPKLLIYTASSLQSGVPSRFSGSGSGTDFTLTIGSLQPEDFATYYCQQAHSLPITFGQGTRLEIK
notes: VH and VL only
As for B15, the Kd with human CD3e/d amounted to 47.7 nM; with human CD3e/g, 7 nM.

B16: mAb 117 (antibody, V domains shown)
VH: EVQLVESGGGLVKTGGSLRLSCVASGFSFKKAWMNWVRQAPGKGLEWVGRIKRNTDGGTTDYAAPVKGRFTLSRDDSKNTLYLQMNSLKTEDTAVYYCTTLDSSSLYVGYYYMDVWGKGTTVTVSS
VL: DIQMTQSPSSVSASVGDRVTITCRASQDINNWLAWYQQKPGKAPKLLIYTASSLQSGVPSRFSGSGSGTDFTLTISSLQPEDFATYYCQQAHSLPITFGQGTRLEIK
notes: VH and VL only
Consider B16, for which the Kd with human CD3e/d came out at 40.6 nM; with human CD3e/g, 9.84 nM.

B17: mAb 122 (antibody, V domains shown)
VH: EVQLVESGGGLVKTGGSLRLSCVASGFSFKKAWMNWVRQAPGKGLEWVGRIKRNTDGGTADYAAPVKGRFTLSRDDSKKTLYLQMNSLKTEDTAVYYCTTLDSSSRYVGYYYMDVWGKGTTVTVSS
VL: DIQMTQSPSSVSASVGDRVIITCRASQDINNWLAWYQQKPGKVPKLLIYTASSLQSGVPSRFSGSGSGTDFTLTIGSLQPEDFATYYCQQAHSLPITFGQGTRLEIK
notes: VH and VL only
Consider B17, for which the Kd with human CD3e/d came to 34.2 nM; in the assay with human CD3e/g it was 13 nM.

B18: mAb 112 (antibody, V domains shown)
VH: EVQLVESGGGLVKTGGSHRLSCVASGFSFKKAWMNWVRQAPGKGLEWVGRIKRNSDGGTTDYAAPVKGRFILSRDDSKNTLYLQMNSLKTEDTAVYYCTTLDSSSWYVGYYYMDVWGKGTTVTVSS
VL: DIQMTQSPSSVSASVGDRVTITCRASQDINNWLAWYQQKPGKAPKILIYTASNLQSGVPSRFSGSGSGTDFTLTISSLQPEDFATYFCQQAHSLPITFGQGTRLEIK
notes: VH and VL only
For B18, the results for the Kd with human CD3e/d and with human CD3e/g were 56.9 nM and 14.8 nM, respectively.

B19: mAb 113 (antibody, V domains shown)
VH: EVQLVESGGGLVKTGGSLRLSCVASGFSFKKAWMNWVRQAPGKGLEWVGRIKRNTDGGTTDYAAPVKGRFTLSRDDSKNTLYLQMNSLKTEDTAVYYCTTLDSSSWYVGYYYMDVWGKGTTVTVSS
VL: DIQMTQSPSSVSASVGDRVTITCRASQDINNWLAWYQQKPGKAPKILIYTASSLQSGVPSRFSGSGSGTDFTLTISSLQPEDFATYYCQQAHSLPITFGQGTRLEIK
notes: VH and VL only
Take B19: the Kd was 107 nM with human CD3e/d and 28.8 nM with human CD3e/g.
